Test results taken from US20220160843A1 (priority 2019, published 2022).
Read-outs that look alike come from different tables or passages of the source.

B1: GN150: Native lysin, WP_034684053.1/VanY, SEQ ID NO: 19 (protein, listed as Acinetobacter sp.)
chain: MSFKLGKRSLSNLEGVHPDLIKVVKRAIELTECDFTVTEGLRSKERQAQLLKEKKTTTSNSRHLTGHAVDLAAWVNNTVSWDWKYYYQIADAMKKAASELNVSIDWGGDWKKFKDGPHFELTWSKYPIKGAS
B2: GN4: Native lysin, YP_002284361.1/Lysozyme, SEQ ID NO: 3; first disclosed in WO/2017/049233 (protein)
chain: MRTSQRGIDLIKSFEGLRLSAYQDSVGVWTIGYGTTRGVTRYMTITVEQAERMLSNDIQRFEPELDRLAKVPLNQNQWDALMSFVYNLGAANLASSTLLKLLNKGDYQGAADQFPRWVNAGGKRLDGLVKRRAAERALFLEPLS
modifications: Pseudomonas phage PAJU2

Tests used:
[1] = tested on: carbapenem-resistant P. aeruginosa strains; experiment: Resensitization of carbapenem-resistant clinical strains using carbapenems in combination with lysins; format: cell-based; conditions: for MIC: Pseudomonas aeruginosa, meropenem alone (GN121 checkerboard)
Procedure: (§1) The checkerboard assays is based on a modification of the CLSI method for MIC determination by broth microdilution (26, 29). Checkerboards were constructed by first preparing columns of a 96-well polypropylene microtiter plate, in which each well had the same amount of antibiotic diluted 2-fold along the horizontal axis. […] Summation fractional inhibitory concentrations (ΣFICs) were calculated for each drug and the minimum ΣFIC value (ΣFICmin) was used to determine synergy. ΣFICs were calculated as follows: ΣFIC=FIC A+FIC B, where FIC A is the MIC of each antibiotic in the combination/MIC of each antibiotic alone, and FIC B is the MIC of each GN lysin in the combination/MIC of each GN lysin alone. The combination is considered synergistic when the ΣFIC is ≤0.5, strongly additive when the ΣFIC is >0.5 to <1, additive with the ΣFIC is 1−<2, and antagonistic when the ΣFIC is ≥2.
Up to seven carbapenem-resistant isolates were assessed. […] See Clinical and Laboratory Standards Institute (CLSI), CLSI. […] M100 Performance Standards for Antimicrobial Susceptibility Testing; 29th Edition. Clinical and Laboratory Standards Institute, Wayne, Pa.

[2] = tested on: P. aeruginosa strain ATCC 17647; experiment: Minimal Biofilm Eradicating Concentration (MBEC), Calgary Biofilm Device; format: cell-based, Pseudomonas aeruginosa; conditions: 24 h biofilm, 24 h treatment; minimum concentration removing >95% of biofilm biomass (crystal violet)
Source text: All samples were examined in triplicate.

[3] = tested on: P. aeruginosa; experiment: Minimal inhibitory concentration (MIC), modified CLSI broth microdilution in CAA or CAA/HuS; format: cell-based, Pseudomonas aeruginosa; conditions: for MIC (μg/mL) in CAA: CAA media
[4] = tested on: carbapenem-resistant clinical strain, WC-452; experiment: Checkerboard assay to examine synergy with antibiotics in CAA/HuS; format: cell-based, P. aeruginosa; conditions: for FICI, Amikacin: lysin + amikacin; for FICI, Azithromycin: lysin + azithromycin; for FICI, Aztreonam: lysin + aztreonam; for FICI, Ciprofloxacin: lysin + ciprofloxacin; for FICI, Colistin: lysin + colistin; for FICI, Fosfomycin: lysin + fosfomycin; for FICI, Gentamicin: lysin + gentamicin; for FICI, Imipenem: lysin + imipenem; for FICI, Piperacillin: lysin + piperacillin; for FICI, Rifampicin: lysin + rifampicin; for FICI, Tobramycin: lysin + tobramycin
Procedure: Fractional inhibitor concentration index (FICI) values were determined for all combinations; values of <0.5 indicate synergy.
as §1

[5] = tested on: P. aeruginosa; experiment: Time-kill assay of GN lysin activity; format: cell-based, Pseudomonas aeruginosa; conditions: for Log10 CFU/mL T = 3 hr / Log10 CFU/mL T = l hr: lysin 10 μg/mL, T = 0 7.8; for Log10 CFU/mL T = 3 hr: buffer control 7.2, limit of detection 3.7; for Log10 CFU/mL T = l hr: buffer control 7.7
Procedure: All treatments were incubated at 37° C. with aeration.

[6] = CAA supplemented with 25% human serum
[7] = CAA/HuS, ‡ indicates bactericidal activity
[8] = HEPES buffer, ‡ indicates bactericidal activity

Row | Molecule | MBEC [2] [µg/mL] | MIC (μg/mL) in CAA [3] [µg/mL] | MIC (μg/mL in CAA/HuS) [3, 6] [µg/mL] | synergy with antibiotics in the checkerboard assay [4] | FICI, Amikacin [4] | FICI, Azithromycin [4] | FICI, Aztreonam [4] | FICI, Ciprofloxacin [4] | FICI, Colistin [4] | FICI, Fosfomycin [4] | FICI, Gentamicin [4] | FICI, Imipenem [4] | FICI, Piperacillin [4] | FICI, Rifampicin [4] | FICI, Tobramycin [4] | Log10 CFU/mL T = 3 hr [5, 7] | Log10 CFU/mL T = l hr ([5]; CAA/HuS) [Log10 CFU/mL] | Log10 CFU/mL T = 3 hr [5, 8] | Log10 CFU/mL T = l hr [5, 8] [Log10 CFU/mL] | also measured
1 | C[C@@H](O)[C@H]1C(=O)N2C(C(=O)O)=C(SCCN=CN)C[C@H]12 [Imipenem, imipenem, reference compound] | – | – | – | – | – | – | – | – | – | – | – | – | – | – | – | – | – | – | – | IMIPENEM MIC Combination ([1]; isolate PA19, imipenem in combination with GN121): 1 (S) μg/mL; IMIPENEM MIC Combination ([1]; isolate PA19, imipenem in combination with GN123): 0.5 (S) μg/mL; IMIPENEM MIC Combination ([1]; isolate PA20, imipenem in combination with GN121): 0.5 (S) μg/mL; IMIPENEM MIC Combination ([1]; isolate PA20, imipenem in combination with GN123): 1 (S) μg/mL; IMIPENEM MIC Combination ([1]; isolate PA21, imipenem in combination with GN121): 1 (S) μg/mL; IMIPENEM MIC Combination ([1]; isolate PA21, imipenem in combination with GN123): 0.5 (S) μg/mL; IMIPENEM MIC Combination ([1]; isolate PA22, imipenem in combination with GN121): 2 (S) μg/mL; IMIPENEM MIC Combination ([1]; isolate PA22, imipenem in combination with GN123): 2 (S) μg/mL; IMIPENEM MIC Combination ([1]; isolate PA23, imipenem in combination with GN123): 0.25 (S) μg/mL; IMIPENEM MIC Combination ([1]; isolate PA24, imipenem in combination with GN121): 1 (S) μg/mL; IMIPENEM MIC Combination ([1]; isolate PA24, imipenem in combination with GN123): 2 (S) μg/mL; IMIPENEM MIC Combination ([1]; isolate WC-452, imipenem in combination with GN123): 1 (S) μg/mL
2 | C[C@@H](O)[C@H]1C(=O)N2C(C(=O)O)=C(S[C@@H]3CN[C@H](C(=O)N(C)C)C3)[C@H](C)[C@H]12 [Meropenem, meropenem, reference compound] | – | – | – | – | – | – | – | – | – | – | – | – | – | – | – | – | – | – | – | MIC ([1]; GN121, read-out: Meropenem MIC Alone, isolate PA19): 32 µg/mL; MIC ([1]; GN121, read-out: Meropenem MIC Alone, isolate PA21): 32 µg/mL; MIC ([1]; GN121, read-out: Meropenem MIC Alone, isolate PA22): 16 µg/mL; MIC ([1]; GN121, read-out: Meropenem MIC Alone, isolate PA23): 16 µg/mL; MIC ([1]; GN121, read-out: Meropenem MIC Alone, isolate PA24): 32 µg/mL; MIC ([1]; GN121, read-out: Meropenem MIC Alone, isolate WC-452): 16 µg/mL; Meropenem MIC Combination ([1]; isolate PA19, meropenem in combination with GN121): 1 µg/mL; Meropenem MIC Combination ([1]; isolate PA19, meropenem in combination with GN123): 0.5 (S) μg/mL; Meropenem MIC Combination ([1]; isolate PA20, meropenem in combination with GN121): 1 µg/mL; Meropenem MIC Combination ([1]; isolate PA20, meropenem in combination with GN123): 0.5 (S) μg/mL; Meropenem MIC Combination ([1]; isolate PA21, meropenem in combination with GN121): 2 µg/mL; Meropenem MIC Combination ([1]; isolate PA21, meropenem in combination with GN123): 1 (S) μg/mL; Meropenem MIC Combination ([1]; isolate PA22, meropenem in combination with GN121): 1 µg/mL; Meropenem MIC Combination ([1]; isolate PA22, meropenem in combination with GN123): 1 (S) μg/mL; Meropenem MIC Combination ([1]; isolate PA23, meropenem in combination with GN121): 2 µg/mL; Meropenem MIC Combination ([1]; isolate PA23, meropenem in combination with GN123): 0.5 (S) μg/mL; Meropenem MIC Combination ([1]; isolate PA24, meropenem in combination with GN121): 1 µg/mL; Meropenem MIC Combination ([1]; isolate PA24, meropenem in combination with GN123): 2 (S) μg/mL; Meropenem MIC Combination ([1]; isolate WC-452, meropenem in combination with GN121): 1 µg/mL; Meropenem MIC Combination ([1]; isolate WC-452, meropenem in combination with GN123): 1 (S) μg/mL
3 | B1 | 0.25 | 2 | 32 | synergize with a range of antibiotics | 0.313 | 0.125 | 0.188 | 0.250 | 0.094 | 0.375 | 0.375 | 0.375 | 0.500 | 0.094 | 0.500 | <3.7‡ Log10 CFU/mL | 6.0 | <3.7‡ Log10 CFU/mL | 5.7 | bactericidal activity in the time-kill assay format ([5]; 3-hour timepoint, 10 μg/mL, in either CAA/HuS or HEPES buffer): bactericidal activity
4 | B2 | 1 | 64 | 16 | synergize with a range of antibiotics | 0.531 | 0.094 | 0.156 | 0.250 | 0.156 | 0.250 | 0.375 | 0.125 | 0.313 | 0.156 | 0.375 | <3.7‡ Log10 CFU/mL | 6.0 | <3.7‡ Log10 CFU/mL | 5.7 | MIC value in CAA/HuS [3, 6]: 16 µg/mL
